From PMC5809404, “Luminescence resonance energy transfer between genetically encoded donor and acceptor for protein-protein interaction studies in the molecular chaperone HSP70/HSP90 complexes” (Scientific Reports, 2018)

How the values were obtained:
Conditions in all cases: both partners purified
[1] = biological target: T1, LBT-TPR2A (TPR2A domain of yeast Sti1 with an N-terminal lanthanide binding tag) (yeast, UniProt P15705 252-379); assay: LRET (luminescence resonance energy transfer); titration: 20 µM LBT-TPR2A-Tb3+ complex with increasing EGFP-C90 (0-15 µM); normalized LRET Em510 nm/Em490 nm; Scatchard plot; three independent experiments
T1 construct: TPR2A domain of Sti1, yeast, aa 252-379; Loaded with equimolar Tb3+ in the assay; also called LBT-TPR2A (Sti1); LBT-TRP2A; source: E. coli Rosetta (DE3) pLysS, purified (Ni-NTA)
T1 sequence (looked up): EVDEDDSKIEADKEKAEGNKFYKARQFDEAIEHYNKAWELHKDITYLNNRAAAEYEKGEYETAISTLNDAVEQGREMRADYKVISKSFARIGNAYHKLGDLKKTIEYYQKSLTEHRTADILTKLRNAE

[2] = biological target: T2, LBT-TPR2A (TPR2A domain of human HOP, wild type, with an N-terminal lanthanide binding tag) (human, UniProt P31948 225-337); assay: LRET (luminescence resonance energy transfer); equimolar mixture in solution of the LBT-tagged protein loaded with Tb3+ and the EGFP or TagRFP fusion protein (5 µM, or 25 µM for TagRFP-C70); 96-well black plates; excitation 280 nm, 100 µs delay, emission spectrum 450-600 nm
T2 construct: TPR2A domain of HOP (STIP1), human, aa 225-337; Cloned into the XhoI site of pST96/LBT-MCS; Loaded with equimolar Tb3+ in the assay; also called LBT-TPR2A WT; TPR2A WT; source: E. coli Rosetta (DE3) pLysS, purified (Ni-NTA)
T2 sequence (P31948 225-337): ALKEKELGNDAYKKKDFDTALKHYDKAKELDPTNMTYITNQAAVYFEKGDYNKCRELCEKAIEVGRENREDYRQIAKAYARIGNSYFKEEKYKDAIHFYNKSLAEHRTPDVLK

[3] = biological target: T3, LBT-TPR2A K229A (TPR2A domain of human HOP, point mutant K229A) (human, UniProt P31948 225-337, K229A); assay: as above
T3 construct: TPR2A domain of HOP (STIP1), human, aa 225-337, with K229A; Loaded with equimolar Tb3+ in the assay; also called TPR2A mutant K229A; source: E. coli Rosetta (DE3) pLysS, purified (Ni-NTA)
T3 sequence (P31948 225-337 K229A): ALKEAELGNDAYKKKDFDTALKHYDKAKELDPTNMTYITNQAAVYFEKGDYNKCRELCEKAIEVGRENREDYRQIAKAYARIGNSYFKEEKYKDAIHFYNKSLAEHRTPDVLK

Kd [1]: 4.2 µM | binding result [2]: binds | binding result [3]: binds
B1: EGFP-C90 (last 90 amino acids of human HSP90α fused to the C-terminus of EGFP) (domain or fragment)
chain: not shown
notes: HSP90α, human, the C-terminal 90 amino acids, ending with MEEVD; EGFP in the XhoI site and C90 in the BamHI site of pET15b; source: E. coli Rosetta (DE3) pLysS, purified (Ni-NTA); not shown: EGFP, N-terminal, kept
